Values quoted from earlier work as cited in article PMC5689411.

Target: RNR beta2 (Escherichia coli) (UniProt P69924)
Experiment: competitive inhibition assay

Sequence of UniProt P69924 (P69924 2-376): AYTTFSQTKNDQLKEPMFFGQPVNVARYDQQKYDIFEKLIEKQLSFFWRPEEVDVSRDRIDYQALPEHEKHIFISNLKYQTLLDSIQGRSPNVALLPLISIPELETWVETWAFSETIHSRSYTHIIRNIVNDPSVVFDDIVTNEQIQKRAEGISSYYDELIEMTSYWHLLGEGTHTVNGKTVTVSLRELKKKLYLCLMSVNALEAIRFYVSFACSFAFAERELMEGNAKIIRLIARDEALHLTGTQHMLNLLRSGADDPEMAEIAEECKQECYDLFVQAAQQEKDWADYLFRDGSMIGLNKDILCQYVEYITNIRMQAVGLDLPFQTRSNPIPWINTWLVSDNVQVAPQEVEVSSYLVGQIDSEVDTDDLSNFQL

Kd: 0.18 µM
Substance: RNR alpha2 (from UniProt P00452)
